Test results: patent publication US20180312564A1 (VERSITECH, published 2018)

Columns and labels:
human PD-L1 = target: T1, human PD-L1 (human, UniProt Q9NZQ7 19-290); assay: flow cytometry on 293T cells transfected with human PD-L1, anti-rabbit Fc detection
T1 construct: whole, on cells; also called CD274; B7-H1
Description: (§1) The results were analyzed by flow cytometry using a detection antibody against rabbit Fc (color lines) or isotype control (black line). […] Percentage of cells with positive staining (solid line) is shown with corresponding antibodies and isotype control (shaded). Data are representative of three independent experiments.

human PD-L2 = target: T2, human PD-L2 (human, UniProt Q9BQ51 20-273); assay: flow cytometry on 293T cells transfected with human PD-L2, anti-rabbit Fc detection
T2 construct: whole, on cells; also called CD273; B7-DC
T2 sequence (looked up): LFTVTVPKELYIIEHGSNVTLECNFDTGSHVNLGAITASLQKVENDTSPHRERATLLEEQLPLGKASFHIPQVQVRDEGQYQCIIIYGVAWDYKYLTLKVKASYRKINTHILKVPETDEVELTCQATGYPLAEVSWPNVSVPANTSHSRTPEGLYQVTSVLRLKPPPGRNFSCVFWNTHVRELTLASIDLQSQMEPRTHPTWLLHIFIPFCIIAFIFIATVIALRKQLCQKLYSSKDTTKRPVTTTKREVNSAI
Description: as §1

T1 sequence (Q9NZQ7 19-290): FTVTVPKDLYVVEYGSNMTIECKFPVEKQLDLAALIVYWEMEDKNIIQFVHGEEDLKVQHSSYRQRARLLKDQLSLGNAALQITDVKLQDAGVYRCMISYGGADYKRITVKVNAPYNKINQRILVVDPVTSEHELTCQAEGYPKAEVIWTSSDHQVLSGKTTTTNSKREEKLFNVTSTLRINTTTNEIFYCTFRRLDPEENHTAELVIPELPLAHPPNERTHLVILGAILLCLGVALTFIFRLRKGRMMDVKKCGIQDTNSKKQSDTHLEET

B1: sΔ42PD1Fc (soluble Δ42PD1 fused with the rabbit IgG Fc domain) (Fc fusion)
chain: LALLVVTEGDNATFTCSFSNTSESFVLNWYRMSPSNQTDKLAAFPEDRSQPGQDCRFRVTQLPNGRDFHMSVVRARRNDSGTYLCGAISLAPKAQIKESLRAELRVTERRAEVPTAHPSPSPRPAGQLEATNTKVDKTVAPSTCSKPMCPPPELLGGPSVFIFPPKPKDTLMISRTPEVTCVVVDVSQDDPEVQFTWYINNEQVRTARPPLREQQFNSTIRVVSTLPIAHQDWLRGKEFKCKVHNKALPAPIEKTISKARGQPLEPKVYTMGPPREELSSRSVSLTCMINGFYPSDISVEWEKNGKAEDNYKTTPTVLDSDGSYFLYSKLSVPTSEWQRGDVFTCSVMHEALHNHYTQKSISHSPGK
- binding result (human PD-L1): no binding (tested: 0.5, 2, 5 and 20 µg/ml)
- binding result (human PD-L2): no binding (tested: 0.5, 2, 5 and 20 µg/ml)
